Assay results as given in patent US20240116997A1 (BRIGHT PEAK THERAPEUTICS, published 2024).
Where two headings read alike, the source gives them in different places.

T1: IL-18 receptor (IL-18Rαβ) on cells (UniProt Q13478 19-541; O95256 20-599, limits assumed)
T1 sequence (looked up) 1: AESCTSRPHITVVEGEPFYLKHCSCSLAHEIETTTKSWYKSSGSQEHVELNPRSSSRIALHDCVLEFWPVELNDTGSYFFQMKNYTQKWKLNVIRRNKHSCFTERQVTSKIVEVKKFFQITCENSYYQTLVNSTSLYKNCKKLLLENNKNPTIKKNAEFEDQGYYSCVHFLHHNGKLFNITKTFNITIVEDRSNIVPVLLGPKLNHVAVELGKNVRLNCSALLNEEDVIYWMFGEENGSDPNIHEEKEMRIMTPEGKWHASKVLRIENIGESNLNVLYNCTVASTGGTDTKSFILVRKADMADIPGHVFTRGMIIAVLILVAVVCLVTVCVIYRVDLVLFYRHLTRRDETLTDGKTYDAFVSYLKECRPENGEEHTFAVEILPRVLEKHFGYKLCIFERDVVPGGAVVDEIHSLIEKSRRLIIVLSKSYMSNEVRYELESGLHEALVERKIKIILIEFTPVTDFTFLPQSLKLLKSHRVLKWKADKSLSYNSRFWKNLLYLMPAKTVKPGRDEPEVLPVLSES
T1 sequence (looked up) 2: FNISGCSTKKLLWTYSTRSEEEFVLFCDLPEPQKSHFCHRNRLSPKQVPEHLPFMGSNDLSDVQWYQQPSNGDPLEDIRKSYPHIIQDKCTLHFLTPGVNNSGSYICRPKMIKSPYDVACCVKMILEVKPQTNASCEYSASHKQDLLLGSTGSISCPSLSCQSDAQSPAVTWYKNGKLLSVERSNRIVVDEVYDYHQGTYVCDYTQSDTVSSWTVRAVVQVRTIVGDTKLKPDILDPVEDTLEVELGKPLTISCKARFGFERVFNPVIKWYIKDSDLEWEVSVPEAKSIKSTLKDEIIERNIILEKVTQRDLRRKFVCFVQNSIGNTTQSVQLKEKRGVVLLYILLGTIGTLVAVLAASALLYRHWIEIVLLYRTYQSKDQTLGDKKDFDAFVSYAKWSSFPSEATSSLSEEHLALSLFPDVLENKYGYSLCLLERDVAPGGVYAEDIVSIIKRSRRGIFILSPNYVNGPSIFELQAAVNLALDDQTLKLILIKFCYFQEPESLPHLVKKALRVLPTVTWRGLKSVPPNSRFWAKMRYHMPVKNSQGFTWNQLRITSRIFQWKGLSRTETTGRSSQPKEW


What was measured:
Test in all cases: cell-based or functional assay
[1] = target: T1, IL-18 receptor (IL-18Rαβ) on cells
[2] = target: T1, IL-18 receptor (IL-18Rαβ) on cells; remark: listed apart in the source
[3] = target: T1, IL-18 receptor (IL-18Rαβ) on cells; remark: listed apart in the source
[4] = target: T1, IL-18 receptor (IL-18Rαβ) on cells; remark: listed apart in the source
[5] = target: T1, IL-18 receptor (IL-18Rαβ) on cells; remark: listed apart in the source

| Binder | EC50 (read off the curve), HEK-Blue IL18R reporter [1] | EC50 (nM), IFNγ induction, NK-92 cells [2] | EC50 (pM), HEK-Blue IL-18R reporter assay [3] | HEK-blue EC50 [4] | EC50 (read off the curve), HEK-Blue IL18R reporter [5] | Fold potency loss vs C086 [4] |
| --- | --- | --- | --- | --- | --- | --- |
| C086 (SEQ ID NO: 30; E6K, V11I, C38A, K53A, T63A, C76A, C127A) (ligand) YFGKLKSKLSIIRNLNDQVLFIDQGNRPLFEDMTDSDARDNAPRTIFIISMYADSQPRGMAVAISVKCEKISTLSAENKIISFKEMNPPDNIKDTKSDIIFFQRSVPGHDNKMQFESSSYEGYFLAAEKERDLFKLILKKEDELGDRSIMFTVQNED | ~0.04 pM | 0.026 nM | 0.034 pM | 40 pM | ~0.04 pM |  |
| C191 (C086-PLGLAG linker-IL-18Rα D3-His6; SEQ ID NO: 76) (ligand) YFGKLKSKLSIIRNLNDQVLFIDQGNRPLFEDMTDSDARDNAPRTIFIISMYADSQPRGMAVAISVKCEKISTLSAENKIISFKEMNPPDNIKDTKSDIIFFQRSVPGHDNKMQFESSSYEGYFLAAEKERDLFKLILKKEDELGDRSIMFTVQNESGGPLGLAGGSNIVPVLLGPKLNHVAVELGKNVRLNCSALLNEEDVIYWMFGEENGSDPNIHEEKEMRIMTPEGKWHASKVLRIENIGESNLNVLYNCTVASTGGTDTKSFILVRKADHHHHHH | ~2 pM |  |  | 2020 pM |  | 48 fold |
